# T1: A2AP peptides with the consensus motif SRMSLSS (human)
# T1 construct: Consensus motif shared by the reacting peptides of the PEPperCHIP arrays (linear 15-mers; cyclic 7-, 10- and 13-mers closed by a thioether)
# T1 peptide: SRMSLSS
# T2: human alpha2-Antiplasmin (human, UniProt P08697 40-491)
# T2 sequence: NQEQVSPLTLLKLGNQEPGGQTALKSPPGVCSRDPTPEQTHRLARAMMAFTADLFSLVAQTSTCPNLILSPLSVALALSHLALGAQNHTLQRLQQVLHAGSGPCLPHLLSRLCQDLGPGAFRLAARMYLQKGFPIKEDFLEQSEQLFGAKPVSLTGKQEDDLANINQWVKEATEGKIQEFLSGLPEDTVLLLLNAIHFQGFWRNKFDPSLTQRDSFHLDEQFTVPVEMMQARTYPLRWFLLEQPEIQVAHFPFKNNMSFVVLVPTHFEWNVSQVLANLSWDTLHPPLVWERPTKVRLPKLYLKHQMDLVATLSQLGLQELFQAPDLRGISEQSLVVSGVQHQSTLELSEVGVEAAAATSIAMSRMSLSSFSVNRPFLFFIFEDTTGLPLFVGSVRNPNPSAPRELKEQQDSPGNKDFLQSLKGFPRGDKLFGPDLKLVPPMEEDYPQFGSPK
# T3: cynomolgus alpha2-Antiplasmin (cynomolgus (Macaca fascicularis), UniProt P08697 28-491 (human entry))
# T3 chain: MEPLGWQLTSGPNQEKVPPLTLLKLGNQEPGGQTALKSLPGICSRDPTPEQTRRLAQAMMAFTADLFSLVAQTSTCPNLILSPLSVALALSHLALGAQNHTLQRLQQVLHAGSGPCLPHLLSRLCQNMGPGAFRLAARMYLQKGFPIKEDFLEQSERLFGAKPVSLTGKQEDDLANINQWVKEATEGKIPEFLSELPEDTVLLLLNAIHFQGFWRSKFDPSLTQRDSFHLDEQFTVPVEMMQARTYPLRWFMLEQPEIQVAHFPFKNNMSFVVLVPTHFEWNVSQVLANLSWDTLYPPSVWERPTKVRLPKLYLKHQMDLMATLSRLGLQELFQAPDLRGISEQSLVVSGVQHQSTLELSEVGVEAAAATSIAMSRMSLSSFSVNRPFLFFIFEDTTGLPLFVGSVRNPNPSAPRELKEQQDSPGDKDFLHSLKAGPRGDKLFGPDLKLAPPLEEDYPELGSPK
# T4: rabbit alpha2-Antiplasmin (rabbit (Oryctolagus cuniculus))
# T4 chain: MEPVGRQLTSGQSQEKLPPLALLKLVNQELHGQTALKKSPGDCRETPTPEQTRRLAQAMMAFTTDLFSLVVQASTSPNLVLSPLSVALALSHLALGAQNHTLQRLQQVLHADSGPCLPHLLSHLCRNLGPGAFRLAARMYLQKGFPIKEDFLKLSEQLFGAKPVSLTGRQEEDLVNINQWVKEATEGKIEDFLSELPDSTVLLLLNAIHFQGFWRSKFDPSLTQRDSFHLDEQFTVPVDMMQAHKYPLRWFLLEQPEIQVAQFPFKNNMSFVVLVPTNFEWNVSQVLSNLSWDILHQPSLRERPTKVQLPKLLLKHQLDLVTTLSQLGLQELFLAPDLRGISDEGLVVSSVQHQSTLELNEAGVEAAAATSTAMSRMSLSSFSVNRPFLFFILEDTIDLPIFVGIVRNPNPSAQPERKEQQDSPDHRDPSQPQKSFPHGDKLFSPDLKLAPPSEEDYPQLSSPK
# Experiments:
# [1] = target: T1, A2AP peptides with the consensus motif …; test: PEPperCHIP peptide microarray, antibody at 10 µg/ml
# Method: (§1) Antibodies were incubated on the Microarray in concentrations of 1 μg/ml, 10 μg/ml and 100 μg/ml in incubation buffer. Incubation time was 16 h at 4° C. and shaking at 140 rpm.
# (§2) As secondary antibody the goat anti-human IgG (Fc) DyLight680 was used at a dilution of 1:5000. This detection antibody was incubated on the Microarray at 45 min staining in incubation buffer at room temperature.
# (§3) Microarray image analysis was done with PepSlide® Analyzer. A software algorithm was used to break down fluorescence intensities of each spot into raw, foreground and background signal, and calculated averaged median foreground intensities and spot-to-spot deviations of spot duplicates. Based on averaged median foreground intensities, an intensity map was generated and interactions in the peptide map highlighted by an intensity color code with red for high and white for low spot intensities. Averaged spot intensities of the assays were plotted with the antibody samples against the antigen sequence from the N- to the C-terminus to visualize overall spot intensities and signal-to-noise ratios. The intensity plots were correlated with peptide and intensity maps as well as with visual inspection of the microarray scans to identify the epitopes of the tested antibodies.
# [2] = target: T1, A2AP peptides with the consensus motif …; test: PEPperCHIP peptide microarray, antibody at 1 µg/ml
# Method: as §1, §2, §3
# human alpha2-Antiplasmin = target: T2, human alpha2-Antiplasmin; test: cell-based or functional assay
# [3] = target: T3, cynomolgus alpha2-Antiplasmin; test: cell-based or functional assay
# [4] = target: T4, rabbit alpha2-Antiplasmin; test: cell-based or functional assay
binder,measurement,setting,value
"TPP-12387 hIgG1 (antibody, V domains shown, Fully human IgG1 lambda from the BioInvent n-CoDeR Fab lambda library; parental lead antibody) VH: EVQLLESGGGLVQPGGSLRLSCAASGFTFDDYAMSWVRQAPGKGLEWVSAIGTGGGTYYADSVKGRFTISRDNSKNTLYLQMNSLRAEDTAVYYCAREYYDSSGYYHLDYWGQGTLVTVSS VL: not shown",signal-to-noise-ratio at 10 µg/ml,[1],2260
same,signal-to-noise-ratio at 1 µg/ml,[2],659
same,"function blocking activity IC50, 1st exp. (FIG. 5)",human alpha2-Antiplasmin,170 nM
same,"function blocking activity IC50, 2nd exp.",human alpha2-Antiplasmin,180 nM
same,"function blocking activity IC50, 3rd exp.",human alpha2-Antiplasmin,180 nM
same,"function blocking activity IC50, 1st exp. (FIG. 6.2)",[3],160 nM
same,"function blocking activity IC50, 2nd exp.",[3],160 nM
same,function blocking activity EC50 (FIG. 5 legend),[4],1.4 nM
same,"printed as 'binding activity' in the sentence on function blocking (IC50), 1st exp.",[4],14 nM
same,"printed as 'binding activity' in the sentence on function blocking (IC50), 2nd exp.",[4],13 nM
same,"printed as 'binding activity' in the sentence on function blocking (IC50), 3rd exp.",[4],15 nM

# From patent US20240010750A1 (Bayer, published 2024)
